Data published in patent publication US20190382474A1 (SURFACE ONCOLOGY, published 2019).
Numbering of substitutions follows the chain as printed. Several values for one entry are separate records, joined by “and”; a condition that tells them apart may be missing. Equal entries are not always repeated. Each block holds one binder with its values, some of them ahead of it.

Tests used:
[1] = target: T1, recombinant human IL-27 (human, UniProt Q14213 21-229; Q8NEV9 29-243); assay: SPR, hIL-27 on CM5 chip, bivalent analyte model
T1 construct: Bought from R&D Systems (Cat. 2526-IL); also called hIL-27; rhIL-27
T1 sequence 1: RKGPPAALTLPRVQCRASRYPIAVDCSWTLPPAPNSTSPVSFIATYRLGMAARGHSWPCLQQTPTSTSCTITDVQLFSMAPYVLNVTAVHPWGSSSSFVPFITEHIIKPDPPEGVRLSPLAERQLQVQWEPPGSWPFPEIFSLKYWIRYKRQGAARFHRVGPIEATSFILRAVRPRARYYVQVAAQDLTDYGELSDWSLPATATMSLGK
T1 sequence 2: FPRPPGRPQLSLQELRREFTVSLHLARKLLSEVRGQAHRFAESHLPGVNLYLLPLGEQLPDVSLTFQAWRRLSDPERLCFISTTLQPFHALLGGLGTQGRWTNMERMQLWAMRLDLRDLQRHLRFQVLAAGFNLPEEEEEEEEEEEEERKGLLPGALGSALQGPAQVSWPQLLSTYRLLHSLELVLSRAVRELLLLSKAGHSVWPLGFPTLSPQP
Protocol: (§1) The antibodies were further characterized by surface plasmon resonance (SPR). Kinetic experiments were performed on a Biacore T200 (GE Healthcare, Uppsala, Sweden). All experiments were run at 25° C. with HBS-P+ running buffer (pH 7.4) (GE Healthcare, Little Chalfont, UK) using hIL-27 (R&D Systems, Abingdon, UK). Human IL-27 (hIL-27) antigen was captured on a CM5 chip to ˜16 RU. Immobilization was carried out at a protein concentration of 1 μg/mL in 10 mM acetate buffer pH 5.0. A three point, three-fold dilution range from 3.3 nM to 30 nM of antibody diluted in HBS-P+ buffer without regeneration between each concentration was used. The association phase for the three injections of increasing concentrations of antibody was monitored for 75 seconds each time and a single dissociation phase was measured for 250 seconds following the last injection of antibody. Regeneration of the hIL-27 surface was conducted using a single injection of 2M MgCl₂ for 120 s. Multiple repeats (n=4) of the chimeric antibody were performed throughout the assay to check the stability of the surface and analyte over the kinetic cycles.
(§2) Both 1:1 binding and bivalent analyte models were used to analyze the data due to the bivalent nature of the antibody. The results from the 1:1 binding model analysis are summarized in Table 4 and results from the bivalent analyte model are summarized in Table 5.

[2] = target: T1, recombinant human IL-27; assay: SPR, hIL-27 on CM5 chip, bivalent analyte model (ka1)
Protocol: as §1, §2

[3] = target: T1, recombinant human IL-27; assay: SPR, hIL-27 on CM5 chip, bivalent analyte model (kd1)
Protocol: as §1, §2

[4] = target: T1, recombinant human IL-27; assay: SPR (Biacore T200), hIL-27 on CM5 chip, single cycle, 1:1 model
Protocol: as §1, §2

[5] = target: T1, recombinant human IL-27; assay: column 'Affinity hIL-27 (M)', property (i); method not given, paragraph 885 names SPR (BIACORE 2000)

ka2 [1]: 0.035 1/RUs | kd2 [1]: 0.087 s⁻¹ | kon [2]: 700000 M⁻¹ s⁻¹ | koff [3]: 0.0027 s⁻¹ | Kd [4]: 1.2 nM | Relative KD to Ab7.1 [4]: 1.2 | koff [4]: 0.0018 s⁻¹ | kon [4]: 1.5e+06 M⁻¹ s⁻¹
B1: Ab7.2 (antibody, human IgG1, kappa, V domains shown)
VH: EVKLVESGGGLVQPGGSLKLFCAASGFTFTSYSMSWVRQTPEKRLEWVAYISYDGGSAYYPDTVKGRFSISRDNAKKTLYLQMSSLKSEDTAMYYCARHGDYDDDDAMDYWGQGTSVTVSS
VL: DIQMTQSPSSLSASVGDRVTITCRASENIYSYLAWYQQKQGKAPKLLVYNAETLTEGVPSRFSGSGSGTDFTLTISSLQPEDFANYYCQHHYGTPLTFGQGTKLDIKR
notes: human IgG1/kappa

ka2 [1]: 0.028 1/RUs | kd2 [1]: 0.068 s⁻¹ | kon [2]: 680000 M⁻¹ s⁻¹ | koff [3]: 0.0027 s⁻¹ | Kd [4]: 1.2 nM | Relative KD to Ab7.1 [4]: 1.2 | koff [4]: 0.0018 s⁻¹ | kon [4]: 1.5e+06 M⁻¹ s⁻¹
B5: Ab7.5 (antibody, human IgG1, kappa, V domains shown)
VH: B1 VH with K19R, F21S, T40A, E42G, R44G, S69T, A75S
VL: B1 VL with Q40P, D105E
notes: human IgG1/kappa

ka2 [1]: 0.039 1/RUs | kd2 [1]: 0.099 s⁻¹ | kon [2]: 700000 M⁻¹ s⁻¹ | koff [3]: 0.0026 s⁻¹ | Kd [4]: 1.2 nM | Relative KD to Ab7.1 [4]: 1.2 | koff [4]: 0.0018 s⁻¹ | kon [4]: 1.5e+06 M⁻¹ s⁻¹
B6: Ab7.14 (antibody, human IgG1, kappa, V domains shown)
VH: EVKLVESGGGLVQPGGSLRLSCAASGFTFTSYSMSWVRQAPGKGLEWVAYISYDGGSAYYPDTVKGRFTISRDNSKKTLYLQMNSLRAEDTAVYYCARHGDYDDDDAMDYWGQGTLVTVSS
VL: B1 VL with Q40P, N85T, D105E
notes: human IgG1/kappa

kon [2]: 720000 M⁻¹ s⁻¹ and 710000 M⁻¹ s⁻¹ | koff [3]: 0.0026 s⁻¹ and 0.0025 s⁻¹ | Kd [4]: 1.2 nM and 1.3 nM | Relative KD to Ab7.1 [4]: 1.2 | koff [4]: 0.0018 s⁻¹ | kon [4]: 1.5e+06 M⁻¹ s⁻¹
B7: Ab7.4 (antibody, human IgG1, kappa, V domains shown)
VH: B6 VH with N84S, R87K, A88S, V93M, L116S
VL: B1 VL
notes: human IgG1/kappa

ka2 [1]: 0.084 1/RUs | kd2 [1]: 0.2 s⁻¹ | kon [2]: 600000 M⁻¹ s⁻¹ | koff [3]: 0.0025 s⁻¹ | Kd [4]: 1.4 nM | Relative KD to Ab7.1 [4]: 1.4 | koff [4]: 0.0018 s⁻¹ | kon [4]: 1.3e+06 M⁻¹ s⁻¹
B8: Ab7.10 (antibody, human IgG1, kappa, V domains shown)
VH: B6 VH with K3Q, K77N, N84S, R87K, A88S, V93M
VL: B1 VL with Q40P, N85T, D105E
notes: human IgG1/kappa

ka2 [1]: 0.02 1/RUs | kd2 [1]: 0.053 s⁻¹ | kon [2]: 740000 M⁻¹ s⁻¹ | koff [3]: 0.0026 s⁻¹ | Kd [4]: 1.2 nM | Relative KD to Ab7.1 [4]: 1.2 | koff [4]: 0.0018 s⁻¹ | kon [4]: 1.5e+06 M⁻¹ s⁻¹
B11: Ab7.13 (antibody, human IgG1, kappa, V domains shown)
VH: B6 VH
VL: B1 VL with Q40P, D105E
notes: human IgG1/kappa

ka2 [1]: 0.021 1/RUs | kd2 [1]: 0.046 s⁻¹ | kon [2]: 670000 M⁻¹ s⁻¹ | koff [3]: 0.0022 s⁻¹ | Kd [4]: 1 nM | Relative KD to Ab7.1 [4]: 1 | koff [4]: 0.0015 s⁻¹ | kon [4]: 1.4e+06 M⁻¹ s⁻¹
B15: Ab7.1 (antibody, human IgG1, kappa)
heavy: not shown
light: DIQMTQSPASLSASVGETVTITCRASENIYSYLAWYQQKQGKSPQLLVYNAETLTEGVPSRFSGSGSGTQFSLKINSLQPEDFGNYYCQHHYGTPLTFGAGTKLDLKRTVAAPSVFIFPPSDEQLKSGTASVVCLLNNFYPREAKVQWKVDNALQSGNSQESVTEQDSKDSTYSLSSTLTLSKADYEKHKVYACEVTHQGLSSPVTKSFNRGEC
notes: human IgG1/kappa chimera from HEK293 EBNA cells; also called chimeric Ab7.1 antibody; chimeric antibody

More lines, now with the values behind:

B2: Ab7.17 (antibody, human IgG1, kappa, V domains shown)
VH: B6 VH with K3Q, K77N
VL: B1 VL with Q40P, D105E
notes: human IgG1/kappa
ka2 [1]: 0.039 1/RUs | kd2 [1]: 0.09 s⁻¹ | kon [2]: 580000 M⁻¹ s⁻¹ | koff [3]: 0.0029 s⁻¹ | Kd [4]: 1.5 nM | Relative KD to Ab7.1 [4]: 1.5 | koff [4]: 0.0019 s⁻¹ | kon [4]: 1.3e+06 M⁻¹ s⁻¹

B3: Ab7.3 (antibody, human IgG1, kappa, V domains shown)
VH: B6 VH with N84S, R87K, A88S, V93M, L116S
VL: DIQMTQSPASLSASVGETVTITCRASENIYSYLAWYQQKQGKSPQLLVYNAETLTEGVPSRFSGSGSGTQFSLKINSLQPEDFGNYYCQHHYGTPLTFGAGTKLDLKR
notes: human IgG1/kappa
ka2 [1]: 0.029 1/RUs | kd2 [1]: 0.063 s⁻¹ | kon [2]: 750000 M⁻¹ s⁻¹ | koff [3]: 0.0022 s⁻¹ | Kd [4]: 0.96 nM | Relative KD to Ab7.1 [4]: 0.9 | koff [4]: 0.0015 s⁻¹ | kon [4]: 1.5e+06 M⁻¹ s⁻¹

B4: Ab7.12 (antibody, human IgG1, kappa, V domains shown)
VH: B6 VH
VL: B1 VL
notes: human IgG1/kappa
ka2 [1]: 0.11 1/RUs | kd2 [1]: 0.29 s⁻¹ | kon [2]: 750000 M⁻¹ s⁻¹ | koff [3]: 0.0026 s⁻¹ | Kd [4]: 1.2 nM | Relative KD to Ab7.1 [4]: 1.2 | koff [4]: 0.0018 s⁻¹ | kon [4]: 1.5e+06 M⁻¹ s⁻¹

B9: Ab7.8 (antibody, human IgG1, kappa, V domains shown)
VH: B6 VH with K3Q, K77N, N84S, R87K, A88S, V93M
VL: B1 VL
notes: human IgG1/kappa
ka2 [1]: 0.064 1/RUs | kd2 [1]: 0.15 s⁻¹ | kon [2]: 580000 M⁻¹ s⁻¹ | koff [3]: 0.0027 s⁻¹ | Kd [4]: 1.5 nM | Relative KD to Ab7.1 [4]: 1.4 | koff [4]: 0.0018 s⁻¹ | kon [4]: 1.3e+06 M⁻¹ s⁻¹

B10: Ab7.9 (antibody, human IgG1, kappa, V domains shown)
VH: B6 VH with K3Q, K77N, N84S, R87K, A88S, V93M
VL: B1 VL with Q40P, D105E
notes: human IgG1/kappa
ka2 [1]: 0.043 1/RUs | kd2 [1]: 0.11 s⁻¹ | kon [2]: 590000 M⁻¹ s⁻¹ | koff [3]: 0.0028 s⁻¹ | Kd [4]: 1.5 nM | Relative KD to Ab7.1 [4]: 1.5 | koff [4]: 0.0019 s⁻¹ | kon [4]: 1.3e+06 M⁻¹ s⁻¹

B12: Ab7.16 (antibody, human IgG1, kappa, V domains shown)
VH: B6 VH with K3Q, K77N
VL: B1 VL
notes: human IgG1/kappa
ka2 [1]: 0.04 1/RUs | kd2 [1]: 0.091 s⁻¹ | kon [2]: 570000 M⁻¹ s⁻¹ | koff [3]: 0.0027 s⁻¹ | Kd [4]: 1.5 nM | Relative KD to Ab7.1 [4]: 1.4 | koff [4]: 0.0018 s⁻¹ | kon [4]: 1.3e+06 M⁻¹ s⁻¹

B13: SRF414 (antibody, V domains shown)
VH: QVQLQQWGAGLLKPSETLSLTCAVYGGSFSRYYWSWIRQPPGKGLEWIGSIDYSGSTEYNPSLKSRVTISVDTSKNQFSLKLSSVTAADTAVYYCARDGVYYDSSDLGFDIWGQGTMVTVSS
VL: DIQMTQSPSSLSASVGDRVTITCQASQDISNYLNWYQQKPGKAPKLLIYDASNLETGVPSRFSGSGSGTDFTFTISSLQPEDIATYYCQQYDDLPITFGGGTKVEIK
notes: also called SRF414-A; SRF414-B
Kd [5]: 0.52 nM

B14: SRF541 (antibody, V domains shown)
VH: QVQLQESGPGLVKPSETLSLTCTVSGGSISSYYWSWIRQPPGKGLEWIGSIYYSGSTNYNPSLKSRVTISVDTSKNQFSLKLSSVTAADTAVYYCAREVDRDDVAFDIWGQGTMVTVSS
VL: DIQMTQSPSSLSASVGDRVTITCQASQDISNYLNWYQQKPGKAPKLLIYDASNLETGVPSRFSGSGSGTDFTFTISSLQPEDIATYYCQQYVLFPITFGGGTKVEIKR
Kd [5]: 94.4 nM

B16: SRF573 (antibody, V domains shown)
VH: QVQLVQSGAEVKKPGSSVKVSCKASGGTFSSYAISWVRQAPGQGLEWMGGIIPIFGTANYAQKFQGRVTITADESTSTAYMELSSLRSEDTAVYYCARSYYSSRWHYYYYMDVWGKGTTVTVSS
VL: DIQMTQSPSSVSASVGDRVTITCRASQGISSWLAWYQQKPGKAPKLLIYAASNLQSGVPSRFSGSGSGTDFTLTISSLQPEDFATYYCQQADDLPLTFGGGTKVEIKR
Kd [5]: 0.74 nM

B17: SRF583 (antibody, V domains shown)
VH: QLQLQESGPGLVKPSETLSLTCTVSGGSISSSSYYWGWIRQPPGKGLEWIGSISYSGSTYYNPSLKSRVTISVDTSKNQFSLKLSSVTAADTAVYYCAREEYSFSYLDYWGQGTTVTVSS
VL: B16 VL with D92L, D93L, L94F, L96P
Kd [5]: 1.98 nM
